Test results taken from patent US20160184455A1.

Molecular target: MaxiK channel of rat bladder detrusor smooth muscle (endogenous) (rat) (UniProt Q62976)
Assay: cell-based or functional assay

Sequence of UniProt Q62976 (Q62976 whole entry): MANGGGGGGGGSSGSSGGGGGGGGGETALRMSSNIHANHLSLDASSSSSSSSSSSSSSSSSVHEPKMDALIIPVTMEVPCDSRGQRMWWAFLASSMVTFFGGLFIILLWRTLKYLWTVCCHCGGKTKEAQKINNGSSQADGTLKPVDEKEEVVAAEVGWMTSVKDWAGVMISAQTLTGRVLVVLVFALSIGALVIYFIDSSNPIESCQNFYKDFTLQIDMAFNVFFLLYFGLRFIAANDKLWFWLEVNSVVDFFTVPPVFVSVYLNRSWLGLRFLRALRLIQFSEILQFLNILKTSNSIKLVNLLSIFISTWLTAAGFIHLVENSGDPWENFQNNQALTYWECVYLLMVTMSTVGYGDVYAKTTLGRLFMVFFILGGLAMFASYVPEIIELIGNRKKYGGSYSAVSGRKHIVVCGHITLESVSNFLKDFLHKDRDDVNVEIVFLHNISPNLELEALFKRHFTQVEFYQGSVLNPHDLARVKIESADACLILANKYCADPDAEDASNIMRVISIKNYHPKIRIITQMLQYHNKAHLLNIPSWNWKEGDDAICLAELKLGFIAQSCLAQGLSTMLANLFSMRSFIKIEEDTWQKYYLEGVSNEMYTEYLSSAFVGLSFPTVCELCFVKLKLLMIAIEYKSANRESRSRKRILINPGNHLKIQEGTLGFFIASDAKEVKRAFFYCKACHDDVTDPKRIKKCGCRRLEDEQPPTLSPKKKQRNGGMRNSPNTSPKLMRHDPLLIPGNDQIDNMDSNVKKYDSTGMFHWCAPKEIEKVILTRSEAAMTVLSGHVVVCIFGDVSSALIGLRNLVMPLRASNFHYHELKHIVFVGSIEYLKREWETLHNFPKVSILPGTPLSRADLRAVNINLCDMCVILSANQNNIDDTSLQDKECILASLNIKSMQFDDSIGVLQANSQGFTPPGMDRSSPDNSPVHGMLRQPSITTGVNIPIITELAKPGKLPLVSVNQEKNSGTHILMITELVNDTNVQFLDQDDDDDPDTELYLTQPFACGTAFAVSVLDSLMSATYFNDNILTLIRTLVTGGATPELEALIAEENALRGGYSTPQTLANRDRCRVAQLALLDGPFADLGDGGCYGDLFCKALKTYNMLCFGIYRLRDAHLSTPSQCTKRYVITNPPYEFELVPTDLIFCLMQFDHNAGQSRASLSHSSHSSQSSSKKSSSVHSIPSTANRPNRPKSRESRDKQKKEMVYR

Which outward current in response to applied voltage, single whole cell patch clamp of detrusor cells before and after 300 nM IBTX does the source give for “iberiotoxin (IBTX) (from UniProt P24663 1-37) (peptide)” here?
The outward current in response to applied voltage, single whole cell patch clamp of detrusor cells before and after 300 nM IBTX was > 50%.
